# Measurements: publication PMC3613427
# Columns and labels:
# [1] = molecular target: formate channel FocA from Vibrio cholerae (Vibrio cholerae); experiment: SEC-MALS
# [2] = molecular target: formate channel FocA from Vibrio cholerae (Vibrio cholerae); experiment: crystal structure
substance,measurement,setting,value
formate channel FocA from Vibrio cholerae (natural protein),stoichiometry N,[1],5
same,stoichiometry N,[2],5
